B1: Parkinson disease protein 7 (Homo sapiens), Q99497 (parent)
chain: MASKRALVILAKGAEEMETVIPVDVMRRAGIKVTVAGLAGKDPVQCSRDVVICPDASLEDAKKEGPYDVVVLPGGNLGAQNLSESAAVKEILKEQENRKGLIAAICAGPTALLAHEIGFGSKVTTHPLAKDKMMNGGHYTYSENRVEKDGLILTSRGPGTSFEFALAIVEALNGKEVAAQVKAPLVLKD

Variants of: B1
Conditions: with fadd_human FADD

Question: MASKRALVILAKGAEEMETVIPVDVMRRAGIKVTVAGLAGKDPVQCSRDVVICPDASLEDAKKEGPYDVVVLPGGNLGAQNLSESAAVKEILKEQENRKGLIAAICAGPTALLAHEIGFGSKVTTHPLAKDKMMNGGHYTYSENRVEKDGLILTSRGPGTSFEFAPAIVEALNGKEVAAQVKAPLVLKD was tested. Which “effect of a mutation on the interaction” value did it give?
Answer: Its value is “disrupting interaction”.

Variants of: B1
Conditions: with fadd_human FADD
Remark: another data set of the same source

Question: For MASKRALVILAKGAEEMETVIPVDVMRRAGIKVTVAGLAGKDPVQCSRDVVICPDASLEDAKKEGPYDVVVLPGGNLGAQNLSESAAVKEILKEQENRKGLIAAICAGPTALLAHEIGFGSKVTTHPLAKDKMMNGGHYTYSENRVEKDGLILTSRGPGTSFEFAAAIVEALNGKEVAAQVKAPLVLKD, which “effect of a mutation on the interaction” value is on record?
Answer: The value was “decreasing interaction”.

— IntAct's records for PubMed 21785459
